{"source": "paper PMC7815789", "about": "“Degradation of complex arabinoxylans by human colonic Bacteroidetes” (Nature Communications, 2021)", "target": "BACINT_01039-CE1 (carbohydrate esterase family 1, acetyl-xylan esterase) (Bacteroides intestinalis DSM 17393) (UniProt B3C975)", "experiment": "crystal structure; seleno-methionine-labeled BACINT_01039-CE1, 20 mg/mL in 50 mM Tris, 150 mM NaCl pH 7.5; hanging drop; 10 mM ammonium sulfate, 80 mM sodium cacodylate pH 6.5, 21% PEG4000; two molecules in the asymmetric unit as a dimer"}
{"substance": "BACINT_01039-CE1 (carbohydrate esterase family 1, acetyl-xylan esterase) (from UniProt B3C975 1-382) (enzyme)", "values": [{"measurement": "stoichiometry N", "value": 2}]}
